This data set can be described thus: protease stability score; higher = more stable; yeast display proteolysis, trypsin and chymotrypsin.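 Note: log10 excess protease needed over predicted unfolded state with 0 meaning unfolded.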

Regarding “DDDKRAEDWAKELIKVEQEGDEDQMERNADEDVRLKYGDTEIHGREQFREHVREQIERVDSVDVRIETFHMHNGRLDMVAEVEVQVDGRKHKDRFVFHAVDHNGRMLLKSASEG”, the protease stability score turned out to be 0.522.
As for “DDDKRANQFFRDMLRVFKNNNEKEAEKLFPPDANQNVGEERVHGREQFRKEFVDDARNVDHWEARIVDLDVKNGRIVIRFEFVKDVNGRKNKDVRTLTVVNHNGRLVIERVNSG”, the figure is 0.882.
As to “DDDKRHLAQRFFEAMKRGDPRQALNNMDPNARVVIGDKVIRGRDKFHEHIDKLNKHQRVQYRDVKLHDQGDKITANVDVVRNENGRPHRNVYVAEFSARNGRLTEVEMREDK”, the protease stability score is -0.138.
Sequence “DDDKRKQFEDYMRKFKTGNEEDLVRNMDKDVDVHIGDKTWDGREEAAHELAQHRRHARIEYKSLSVDDKGDKLQVKMQYVDEHNGTPRDSHVVATLRLKNGKIRMIDVKRDG” returned a protease stability score of -0.17.
“DDDKVRESVNNMLHAMQNGDHDRFRKMADENVRIEVGDKEYKGREKAAEHIKEVVDRVDHIQVESVKVHNGRARANLNMVVNGHSARATLNVNANNGRVVVVEMDPDQIRKAES” gave a protease stability score of -0.629.
“DDDKVTKVNELLENIKRGNEDDIRDLMDPNARVRIGDKDFHGREEVSDTWKQIRDTAHLSFTDVKNDDQGDHVYVRARFHQTHNGKPDTSVLHLEVTIRNGKIKEAQFHETP” returned a protease stability score of -0.159.
Next, “DDDLKRKVHKFVEDWKDGDPHRLNHMADEDVRFQVGDKEIHGRKQMHEEVDKEKKEMRRHIDHLELDNQGNTVRVRFELTFTHNGKPFKVDVTIDMEFDGDRLKQAVQRVPREDQTKVKN”: -0.209; “DDDLRRRLHEFWENMQEGDEKRLREMADPNVRFEVGDKSIHGREEFARKVKELHEQQRFSVRIDRMDNQGNKVDITFHVTQKHNGRPNRYTARVTITAHNGKIKSVSVDISQ”: 0.391; “DDDLTRKVEKFMRNVQKGNEEELKKMMDPNVHAEVGDKVYHGREDAVEKRVTHYHEQNWRYEDIDLKVEGDRAKAKVVRVVNINGKPIRFEFSVNMRFHNGKITRINNDLPEEVLHKLKR”: 0.118.
Consider “DDDLVRKAKKFYEIVETGDEDKIVKMLDKDAQINVGDRRIDGREDIKTFEHKQVQHMRIEFDSVHASHQGDKVRVRAQMTVDVNGNPITYQAEFVFNVKNGRIKNLEQRVDEKEMKKIKS”, for which the protease stability score was determined as 0.007.
“DDDLVRKLNHMVKVMQNGDPDKIVDQMDPNARLIVGDKNVHGRDEARRFMEKVNKHLRFEIKSVTLHDRPNNANADVDANFHINGRPVRLKYIIVVSVHNGRIKEVQLRLSEDQERKLEK” came in with a protease stability score of 0.71.
For “DDDNARELVKRIMKAWQTGDEKELNKNMDPNVRIEVGDKTWHGREDVSKMARELRKQVDSIEVKDVEVQGNHANADVVQVVNGEQKHYLVIIDFHNGKARRLKIEER”, the protease stability score stood at 2.11.
Next, “DDDNFRRFKDLQHAENRGDPDRVMELVDPNAHIRVGNTTLKGTKQIKDWVEHILKNWDEQLHSVDEKFQGNHITARYQMEINVNGEPEHFDVTQMATLDNGKIQNRVVRVSEDDLENIER”: -0.247.
As to “DDDNKRKAETYMKNLHTGDPDKATEYMDKDAKIQYGDKSVHGRHQWREEIERRRKELRFTVDLHRLHVQGEKFDLKYIEHNNHNGNPKSQSASVTYRMHNGRVHSIQYSYTK”, the protease stability score was -0.237.
Next, “DDDNKRVVERFLRAQQEGDPDTAKENADENAHFHYGDRRITGRESYAEWMERRKKESRVEFRIDQMNVSGDRIDVHFQMQVRHNGRPERFEARMVIKITNGHIVQVRVEKKE”: 0.207; “DDDNLKRQNEDVNRAVQHGDEKKVADMADPNVKVYYGDKEIHGREKVKEWWKRLADRADSFTVVDIELQGEKIRVRVKANIDGKHVDMEFEAHASNGRVKKMHINPDQFRQLRS”: 0.445; “DDDNVRKMNEMFNALETGDEHKLKKQFDPNAHIRIGDQTYHGMDDYARKFRHKRNNMRQSYESYTITNEGDKVTIEATFSRRHNGTPERKKVVVEVDIRGDQAKSATVQDDR”: 0.032.
Next, “DDDNVRKYVELMHEGDNEQLVRLADPNVRLQVGDKQYDGREDFEHHLRQIHTQADHFQVQDYHFEGDKAVMDVVMTVNGHQFRFKIHVEVRNGEVKQVQWDFTDPNQRDRFRNNLS”: 0.611; “DDDQARKFVNIVQTGDEDKLLELAPPDVRVKVGDHRVHGRENVKRMVEKLKKSVDHFSIRQIHVHNGRVHVDMDVNVNGQTIRAEYVFVAHNGKLEEISIEVTDETVHDLMTRILS”: 0.665; “DDDQKRRVEDWWKVLNHGDPDKLRTLADENAKFDVGDKKYHGMTRAADELVRTLREIRLNIRRMEIQVHNGRVVANVDAEVRVNGNPMQIHYTAQMTASNGKITSVQNRIPSEQLKRLRK”: 0.165.
Next, “DDDQLDRNATQMMEALQTGDEQTLNNLVDPDVRFHIGDKVVHGRDQWNEQVKKIRDRADRIHIKHVEAQGDKVRMEFVLNINGRNIRVRMEAEVHNGRFKVITFDPEQVKEMRK”: 1.19.
For the sequence “DDDQLRKFLEILRSGNEDDMERQADKDARARVGDDHYHGREEVAHMIRNFLHRADHIEVKSVRFTGEKAKVDMHAVVNGQELRLIIEAEVHNGTLKHIVMKVTDEEHKRTLERAMS”, the protease stability score is 0.29.
“DDDQNRRFKEMLEVRKTGDEHRLKQLLDPNARLNIGDKRIHGREEIARFMKTKFDESRSEVDVKDVKAHNGRISVTADFRNSSNGQPQRYTATMRATIHNGSFQEIQIDTEK” came in with a protease stability score of -0.234.
“DDDQQRQAEKIVRAIRHGNEQEVDELVDENVRIEYGDKVVHGRSQLRKKMQDEKRHIRQDIKVDTVKEDGDKALIHFKNNFTVNGTPTTNTYSYEVEFTNGRAKELRIRVDPQEVRKQEK” had a protease stability score of -0.118.
Next, “DDDQRKDYERFLRWQEENDPRKVAEQADPNARFRYGDKHVQGREEQSRRFDEQRKDARWDLDIKRVNVEGNKITVHFKMQMDRNGKPDSRDATRTIEYDNGRIQRDEVKVSS”: -0.231; “DDDQRRKAAQRAHELVKTGDPEEIEKLADKHARIQVGDKRVQGREEAKKIMKEFRERVDHIRISDVQVDGDKIKVDVVVVHNGTKKHVVFVFRVHNGKATEISLEDK”: 0.027.
Next, “DDDQRRKFERFITAVRTGSKEDLNKLIDPNAKINVGNHRYHGMEEFAKQVVTHNKDLRFHVRFKELDFSGNRVRVSYEMTMTVNGKPYQFTARVEFDVHDGSVKSVREQISEDVEQRQRN”: 0.423; “DDDQSRKLKKLFDNNNWDTLQDNADKNANIEVGNKELHGREDAEQLSEKFRDQVDHLTIESIDISGDRVIVTFVVNVNGQRVKYRVVVEAHNGRVKRMRFEFTNPEERKQYDEQLG”: 0.899; “DDDQVRKYQHWLQEQEKGNEESLMEKMDPNVRIRVGNNEVHGREQAAHDIRKTQQEIRVQIDFKSVDAHNGRFDFKFTAQFEVNGTPFRYSASATVVAHNGHIKRVEIRVDPEVQRKRNK”: -0.079.
As for “DDDRKARDFWRKFKEVLDKGDSEENDKLVDENAKFEYGDKTLHGREDAMRWNKHLTTRVDHLRMEVEDFKVHNGKIDVQVRLDVNVNGQQRQHDVKLVAEIDGDKVKLHSLTVK”, the figure is 0.009.
“DDDRRRQAEEILKIFETGDPQKLRSQFDPNARMHYGDKTIHGMEHAAESMERWQNEMRIELKSYSFRKQGDKVQIDAHFVVHHNGKPDTVKIHIRMELDGDKVREVSVEHTQ” displayed a protease stability score of 1.2.
Next, “DDDRVETVAQELAEAIMENDEDRAREMVDPNARIVYGEKDLHGREAFHTVMQLFQHRVDRVDLETVSVHNGRVKFEAVLKHNGTEHRVVFIVDAHNGKAKQVEVRDQ”: 0.862; “DDDSQNEFLQRVAEAIVTGDEKSLVRMMDPNARANVGDKQFHGREQMARWARELRERVDHLQVDDLQNHNGRLHMDIQFKDNGKNKHFIIQVEAHNGKVTKMSADEK”: 1.36; “DDDTDRKVAEDAWRAFEKGDHKRLIELMDKDAEVQVGNRRVSGREKAAHEMVRMVERADHISVKSIDIRGDKATIKFQVNVNGHNQEAKVVFRVQNGRVQEVKFDPTMEKALRT”: 1.39.
“DDDTTAKKAIDDFIENFEHGDPKEADKQADENVRVEYGDKEVDGRHQMAHWLVKLVERVDHVRWHIHEVRMDNGKINVIFENKQKFDGRTEDREFHMTADTRDGRIQLTSVHEK” registered a protease stability score of 0.491.
As for “DDDVLRKVERLIEVENEGNEDEARELMDPNAEFQVGDKSVHGREEYASNMKKEQKELKIEIHHVTQSVHNGEADVHLTMRVNDNGRPKEQHYHATFEAHNGRIVYVKKQMRG”, the figure is -0.099.
As for “DDDVMRRLLKWVKNGDWDVLAENADPNVRVNIGDFRVHGREQFKEWADKLHKKVDHFHYRDVKVNGDRVRFDFIEHFNGKTIDMDMTARAHNGRITSLDVNVRSEDDKHAFKELVS”, the figure is 1.1; as for “DDDVVRKAHSFFRQYQRGNPDHLLKMMDPNARVRYGDKTYQGREDLKEILQHQLDRIRIRVKRMSLRAENGHLNVEVDEVLEHNGEPRRATADVKVTWRNGRIHEMQVVWRG”, 0.27; as for “DDEAKDIVEEVVREGDFRQHMRLADEDAKLEYGDKRLHGRERVSDMAQKINERVDHLEVESVSVRGEEVIITLVLNVDGQKFRMKLVMDVQGDKIKSVKLEARTEDNKKLMDRAFS”, 0.012.
As for “DDEAKDVVDTFMHAVRFGDPDKVDRNIDKDVRLRYGDTEVHGREDAKTYIEDLRDESRVKINEYSATAHNGKADLDADMSFTRNGQPRKRKMKVTAEVHNGHIKELDVQWRP”, the figure is -0.313; as for “DDEAKEHVEDFIRALKDNNPDEVDEYIDKDAKVHVGDTIYHGREEVRRDVERKKRHLRFDYEDVKIEVHGEKVVAHMKVEYQHNGRPDKARVILDVRFHNGRVRSLHIQEQK”, -0.095.
“DDEALRVYQEVLEAWKHGDEDRLRQLLDPNVSIDVGDKDVHGREDYVTKMVRKARELSFHFEHVHVDHDGDKATIQMVYVIDQNGEPDRTANNVKVDVQNGKIKEIRVSSDR” displayed a protease stability score of 0.622.
On to “DDEAMKQFRHWVEAYTTGDSQRLRELVDPNATVRVGDKTYTGMEDIAKNIHQQVRRQRFHVELKRVNNQPNRIEVDLDVTFNVNGKPIRIRLRMQAEMHNGRFKYIEVRFDPDEQRKLES”, for which the protease stability score amounted to 0.861.
With “DDEANKTAHELVRILQTGDDESFEKMVDPNVKVVIGDRTFKGSSEVRDYLRKRKENIHEDLQVKHVSASGNKAHLDLRFRNDKNGRPQERRLELDVVFHNGKVKNVVYHWDG”, the protease stability score came out at 1.39.
Next, “DDEANRVARHFVKALRKGDPDRLREMVDPNAKVVVGDQSWHGRDSLHHILEREIKEIRISIKDVKFQDQGDKANVEMRVESKHNGQPSESSSSVIVVVRNGRIQEIDMKTSG”: 0.291.
Next, “DDEANTVFREQLHQLEEGNHKEVAKNFDPNVRVSVGDRSIHGSEEVNTRIRRQAHESRIQVDHMSDDNSNGRVTMSADQVVNENGKPSTHRYKLTARVHNGKVKSMVITRDG”: -0.575.
Next, “DDEAQKLAEDYLTALQNNNPDKVIELLDPNARAEYGDKTYHGREQIHHFLRQFHKQARLQFTSYDVEVKNGQARLHMRVQVNHNGEPSQYEASIRISVHNGRMKEVQLQWSN”: 1.58.

The values are drawn from the NTF2 design screens of Basanta et al. (2020).
